Experiments:
[1] = test system: Native guinea pig VAMP8 in isolated pancreatic zymogen granules
[2] = target: Assembled ternary SNARE complex (syntaxin1A 1-263 : SNAP25 : VAMP2 1-96) (UniProt P32851)
[3] = target: K85A-R86S-K87A mutant rat VAMP2 cytoplasmic portion 1-96 (UniProt P63045)
[4] = target: Recombinant wild type rat SNAP25 full length 1-206 (UniProt P60881)
[5] = target: T1, Recombinant human VAMP8 (endobrevin) cytoplasmic portion 1-74 (UniProt Q9BV40)
T1 sequence: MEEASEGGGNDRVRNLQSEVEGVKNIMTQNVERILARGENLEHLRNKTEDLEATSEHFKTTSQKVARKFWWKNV

[6] = test system: Native guinea pig VAMP2 in isolated pancreatic zymogen granules

Sequence of K85A-R86S-K87A mutant rat VAMP2 cytoplasmic portion 1-96 (P63045 1-96 K85A/R86S/K87A): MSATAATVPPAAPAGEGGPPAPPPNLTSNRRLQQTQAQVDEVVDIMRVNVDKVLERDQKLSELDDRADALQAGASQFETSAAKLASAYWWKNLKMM
Sequence of Recombinant wild type rat SNAP25 full length 1-206 (P60881 whole entry, looked up, tested part not stated): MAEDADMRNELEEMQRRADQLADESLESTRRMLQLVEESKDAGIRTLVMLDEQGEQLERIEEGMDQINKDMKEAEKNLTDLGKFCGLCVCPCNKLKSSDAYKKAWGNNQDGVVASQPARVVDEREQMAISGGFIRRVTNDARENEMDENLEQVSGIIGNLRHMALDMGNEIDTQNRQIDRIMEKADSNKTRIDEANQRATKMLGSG
Sequence of Assembled ternary SNARE complex (syntaxin1A 1-263 : SNAP25 : VAMP2 1-96) (P32851 whole entry, looked up, tested part not stated, one chain of several): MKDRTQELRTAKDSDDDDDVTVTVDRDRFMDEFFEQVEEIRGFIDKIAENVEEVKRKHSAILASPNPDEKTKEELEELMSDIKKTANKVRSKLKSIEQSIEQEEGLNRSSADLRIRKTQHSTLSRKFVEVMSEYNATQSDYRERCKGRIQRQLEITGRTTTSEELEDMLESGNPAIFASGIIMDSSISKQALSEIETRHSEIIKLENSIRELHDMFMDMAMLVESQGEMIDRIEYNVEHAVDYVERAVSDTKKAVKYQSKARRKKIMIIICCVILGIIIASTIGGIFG

## Fraction ν of Tityus serrulatus venom (Fx ν metalloprotease)
[1]
  proteolytic cleavage (Western blot of isolated zymogen granules): VAMP8 is also a proteolytic target in ZG during incubation with Fx ν
[2]
  proteolytic cleavage (PAGE staining density, 60 min): a clear change in staining density indicating the occurrence of cleavage by Fx ν of both the assembled complex (not boiled, lane 3) and the unassembled SNARE complex proteins (boiled, lane 4)
[3]
  proteolytic cleavage (PAGE, reverse phase chromatography, sequencing): these substitutions prevented the previously observed cleavage
[4]
  proteolytic cleavage (transblot): is a t-SNARE that is also cleaved by Fx ν
[5]
  proteolytic cleavage (transblot, mass spectrometry): is cleaved upon exposure to Fx ν
[6]
  proteolytic cleavage (Western blot of isolated zymogen granules): whole TSV or Fx ν rapidly cleave VAMP2 (upper panel) even in short incubation periods (5 and 30 min)

— patent publication US20120225049
